± gives the standard deviation.
Test: collision cross section of modified peptide (TIMS, N2, iRT-aligned); higher = larger / more extended gas-phase ion
Method: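 1/K0 was aligned run-wise to spiked iRT peptides and converted to CCS in N2 (Mason-Schamp). Values are the mean of 1-3 technical replicates for the most abundant feature at each charge state.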

[1] = charge state: 2, modification: GlyGly (K)
[2] = charge state: 3, modification: GlyGly (K)
[3] = charge state: 2, modification: Dimethyl (K)
[4] = charge state: 3, modification: Dimethyl (K)
[5] = charge state: 2, modification: Butyryl
[6] = charge state: 2, modification: Acetyl (K)
[7] = charge state: 2, modification: Formyl
[8] = charge state: 2, modification: Glutarylation
[9] = charge state: 3, modification: Glutarylation
[10] = charge state: 2, modification: Crotonyl
[11] = charge state: 2, modification: hydroxyisobutyryl
[12] = charge state: 3, modification: Methyl (R)
[13] = charge state: 3, modification: Crotonyl
[14] = charge state: 2, modification: Citrullination (R)

DESFLGKLGGTLAR [_DESFLGK(GlyGly (K))LGGTLAR_]
collision cross section [1]: 437.68 ± 0.96 Å²
collision cross section [2]: 486.51 ± 1.1 Å²

LEKTIDDLEEK [_LEK(Dimethyl (K))TIDDLEEK_]
collision cross section [3]: 401.15 ± 1.1 Å²
collision cross section [4]: 461.19 ± 2.1 Å²

SGKFTQQDIDEAK [_SGK(Butyryl)FTQQDIDEAK_]
collision cross section [5]: 419.52 ± 1.7 Å²

ASNAAVKLAESK [_ASNAAVK(Acetyl (K))LAESK_]
collision cross section [6]: 371.36 ± 0.81 Å²

AGQKLIDVNHYAK [_AGQK(Biotin)LIDVNHYAK_]
collision cross section (charge state: 2, modification: Biotin): 451.79 ± 0.62 Å²
collision cross section (charge state: 3, modification: Biotin): 517.92 ± 3.1 Å²

SLFFGGKGAPLQR [_SLFFGGK(Malonyl)GAPLQR_]
collision cross section (charge state: 2, modification: Malonyl): 399.96 ± 0.61 Å²

GEVQVSDKER [_GEVQVSDK(Formyl)ER_]
collision cross section [7]: 353.55 ± 2.5 Å²

GTISAPGKVVTAAAQAK [_GTISAPGK(GlyGly (K))VVTAAAQAK_]
collision cross section [1]: 456.01 ± 1.6 Å²
collision cross section [2]: 541.49 ± 0.36 Å²

YEQEHAAIQDKLFQVAK [_YEQEHAAIQDK(Malonyl)LFQVAK_]
collision cross section (charge state: 3, modification: Malonyl): 515.74 ± 1.8 Å²

DAIHFYNKSLAEHR [_DAIHFYNK(Gluratylation)SLAEHR_]
collision cross section [8]: 458.31 Å²
collision cross section [9]: 515.3 ± 0.96 Å²

SGKFTQQDIDEAK [_SGK(Crotonyl)FTQQDIDEAK_]
collision cross section [10]: 419.28 ± 0.55 Å²

TLDEILQEKK [_TLDEILQEK(Methyl (K))K_]
collision cross section (charge state: 2, modification: Methyl (K)): 377.9 ± 1.7 Å²
collision cross section (charge state: 3, modification: Methyl (K)): 432.26 ± 5.2 Å²

SGFGKFER [_SGFGK(hydroxyisobutyryl)FER_]
collision cross section [11]: 340.58 ± 1.9 Å²

STGLELETPSLVPVKK [_STGLELETPSLVPVK(Dimethyl (K))K_]
collision cross section [3]: 456.56 ± 2.3 Å²
collision cross section [4]: 515.08 ± 1.7 Å²

LDEKENLSAK [_LDEK(Crotonyl)ENLSAK_]
collision cross section [10]: 370.68 ± 0.26 Å²

PGTPAGYGRGR [_PGTPAGYGR(Methyl (R))GR_]
collision cross section (charge state: 2, modification: Methyl (R)): 362.47 ± 6.7 Å²
collision cross section [12]: 449.19 ± 8.3 Å²

SFEDIHQYR [_SFEDIHQY(Phospho (Y))R_]
collision cross section (charge state: 2, modification: Phospho (Y)): 367.21 ± 0.78 Å²

ASDTSSETVFGKR [_ASDTSSETVFGK(Formyl)R_]
collision cross section [7]: 390.61 ± 0.41 Å²

SNEEGSEEKGPEVR [_SNEEGSEEK(hydroxyisobutyryl)GPEVR_]
collision cross section [11]: 409.53 ± 1.1 Å²

FGTINIVHPKLGSYTK [_FGTINIVHPK(Crotonyl)LGSYTK_]
collision cross section [13]: 553.88 ± 2 Å²

PSVGSQSNQAGQGKR [_PSVGSQSNQAGQGK(Butyryl)R_]
collision cross section [5]: 416.92 ± 1.1 Å²
collision cross section (charge state: 3, modification: Butyryl): 475.14 ± 7.3 Å²

TGPPGSTGSRGPPGPPGR [_TGPPGSTGSRGPPGPP(Hydroxyproline)GR_]
collision cross section (charge state: 3, modification: Hydroxyproline): 472.54 ± 0.36 Å²

PRLPATGTFK [_PR(Citrullination (R))LPATGTFK_]
collision cross section [14]: 351.67 ± 5.4 Å²

PSVSTKLISK [_PSVSTK(Crotonyl)LISK_]
collision cross section [10]: 357.15 ± 0.8 Å²

VGEFSGANKEK [_VGEFSGANK(Acetyl (K))EK_]
collision cross section [6]: 363.56 ± 0.5 Å²

IHNAENIQPGEQKYEYK [_IHNAENIQPGEQK(Crotonyl)YEYK_]
collision cross section [13]: 531.58 ± 2.8 Å²

VEPGSLESSPGLGRGR [_VEPGSLESSPGLGR(Methyl (R))GR_]
collision cross section [12]: 499.14 ± 2.2 Å²

SKLLFSNTAAQK [_SK(GlyGly (K))LLFSNTAAQK_]
collision cross section [1]: 396.71 ± 0.37 Å²
collision cross section [2]: 447.27 ± 13 Å²

VGEFSGANKEK [_VGEFSGANK(Crotonyl)EK_]
collision cross section [10]: 370.98 ± 0.8 Å²

ASAISIKLGSSK [_ASAISIK(Crotonyl)LGSSK_]
collision cross section [10]: 374.63 ± 0.89 Å²

LDHLAEKFR [_LDHLAEK(Gluratylation)FR_]
collision cross section [8]: 375.69 ± 0.099 Å²
collision cross section [9]: 446.6 ± 1.7 Å²

DYSSGFGGKYGVQADR [_DYSSGFGGK(Succinyl)YGVQADR_]
collision cross section (charge state: 2, modification: Succinyl): 438.99 ± 0.83 Å²

RGGFAVQAK [_R(Citrullination (R))GGFAVQAK_]
collision cross section [14]: 326.29 ± 0.63 Å²

LLEEEDSKLK [_LLEEEDSK(Butyryl)LK_]
collision cross section [5]: 385.99 ± 0.85 Å²

IPQEKCILQTDVK [_IPQEK(Crotonyl)CILQTDVK_]
collision cross section [10]: 433.54 Å²

FDDTNPEKEEAK [_FDDTNPEK(Gluratylation)EEAK_]
collision cross section [8]: 403.46 ± 1.1 Å²
collision cross section [9]: 440.63 Å²

TTEETSKPK [_TTEETSK(Trimethyl (K))PK_]
collision cross section (charge state: 2, modification: Trimethyl (K)): 342 ± 0.055 Å²

LGTTPSVYGGAGGRGIR [_LGTTPSVYGGAGGR(Methyl (R))GIR_]
collision cross section [12]: 525.94 ± 0.78 Å²

From the supplement of paper PMC10598134
